In US20190010232A1 (Eli Lilly, published 2019):

Assays:
PD-L1 expressed on cells = PD-L1 expressed on cells (UniProt Q9NZQ7 19-290, limits assumed); test: cell-based or functional assay
[1] = target: T1, human PD-L1-Fc (R&D Systems, cat#156-B7) (human, UniProt Q9NZQ7 19-239); test: ELISA, plate coated with human PD-L1-Fc, detection with anti-human IgG F(ab')2-HRP
T1 construct: Bought reagent; both are treated here as the same molecule; also called PD-L1 ligand; not shown: Fc part of the bought fusion protein
T1 sequence (Q9NZQ7 19-239 limits assumed): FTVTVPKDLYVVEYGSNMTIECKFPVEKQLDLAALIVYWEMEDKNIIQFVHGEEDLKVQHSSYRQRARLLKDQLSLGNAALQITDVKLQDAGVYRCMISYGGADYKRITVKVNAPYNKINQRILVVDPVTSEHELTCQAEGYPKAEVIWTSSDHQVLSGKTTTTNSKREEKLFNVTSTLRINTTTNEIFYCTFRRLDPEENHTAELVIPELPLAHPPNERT

Sequence of PD-L1 expressed on cells (Q9NZQ7 19-290 limits assumed): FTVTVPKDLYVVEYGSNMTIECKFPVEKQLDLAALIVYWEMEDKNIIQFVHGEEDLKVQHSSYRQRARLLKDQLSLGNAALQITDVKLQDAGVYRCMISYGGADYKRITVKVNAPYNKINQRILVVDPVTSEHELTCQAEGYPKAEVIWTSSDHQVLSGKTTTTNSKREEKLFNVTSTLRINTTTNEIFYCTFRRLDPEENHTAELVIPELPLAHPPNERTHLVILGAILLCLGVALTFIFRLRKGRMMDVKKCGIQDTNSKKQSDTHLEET

B1: parent PD-L1 antibody (as IgG1-EN homodimer) (antibody, V domains shown)
VH: QVQLVQSGAEVKKPGSSVKVSCKASGGTFSSYAISWVRQAPGQGLEWMGGIIPIFGTANYAQKFQGRVTITADKSTSTAYMELSSLRSEDTAVYYCARSPDYSPYYYYGMDVWGQGTTVTVSS
VL: QSVLTQPPSASGTPGQRVTISCSGSSSNIGSNTVNWYQQLPGTAPKLLIYGNSNRPSGVPDRFSGSKSGTSASLAISGLQSEDEADYYCQSYDSSLSGSVFGGGIKLTVL
notes: IgG1-EN homodimer; parent of the anti-PD-L1 arm of the bispecific antibodies; also called parental PD-L1 Ab; parental anti-PD-L1 antibody
- EC50, PD-1/NFAT Reporter Jurkat T cell assay with PD-L1 positive T cell activator CHO cells (PD-L1 expressed on cells): 1.92 nM
- EC50 [1]: 0.47 nM
